Source: the supplement of paper PMC12667976

B1: library; numbered along this chain (parent)
chain: MATDAALRRLLRLHRTEIAVAVDSAFPLLHALADHDVVPEDKFQETLHLKEKEGCPQAFHALLSWLLTQDSTAILDFWRVLFKDYNLERYGRLQPILDSFPKDVDLSQPRKGRKPPAVPKALVPPPRLPTKRKASEEARAAAPAALTPRGTASPGSQLKAKPPKKPESSAEQQRLPLGNGIQTMSASVQRAVAMSSGDVPGARGAVEGILIQQVFESGGSKKCIQVGGEFYTPSKFEDSGSGKNKARSSSGPKPLVRAKGAQGAAPGGGEARLGQQGSVPAPLALPSDPQLHQKNEDECAVCRDGGELICCDGCPRAFHLACLSPPLREIPSGTWRCSSCLQATVQEVQPRAEEPRPQEPPVETPLPPGLRSAGEEVRGPPGEPLAGMDTTLVYKHLPAPPSAAPLPGLDSSALHPLLCVGPEGQQNLAPGARCGVCGDGTDVLRCTHCAAAFHWRCHFPAGTSRPGTGLRCRSCSGDVTPAPVEGVLAPSPARLAPGPAKDDTASHEPALHRDDLESLLSEHTFDGILQWAIQSMARPAAPFPS

Variants of: B1
Test: AIRE transcriptional activation functional score (insulin promoter-GFP; nonsense median 0, synonymous median 1) (normalised score); higher = higher AIRE activity (more reporter activation)
Details: with insulin promoter-GFP reporter in HEK293
Outline: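 Three regions of AIRE were covered by codon-optimized NNN-codon libraries, which Bxb1 recombinase integrated into Flp-In T-REx HEK293 landing-pad cells that carry an insulin core promoter-GFP reporter. Integrants (mCherry+, BFP−) were sorted at day 7 and expanded 7 days, and then the top 10% GFP population and the unselected integrant population were tile-sequenced. The functional score is the enrichment of each variant in select versus non-select cells, with wild type subtracted. Variants required 10 counts per million in non-select, and values were rescaled to a nonsense median of 0 and a synonymous median of 1, then averaged over biological replicates.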

AIRE transcriptional activation functional score: each site, then its substitutions
C322: W 0.487 | V 0.9 | Y 0.843
P325: F 1.01 | N 0.521 | L 1.12 | Y 1.18 | G 1.1 | V 0.965 | M 1.15 | W 0.913 | S 1.21 | Q 0.938 | D 0.208 | A 1.15 | T 0.777 | K 1.55 | I 1.07 | E 1.45 | R 0.876 | C 1.04 | H 0.387
I330: A 0.828 | V 0.684 | L 0.906 | E 0.403 | Y 0.572 | Q 0.577 | T 0.637 | C 0.866 | P 1.33 | N 0.89 | W 0.987 | F 0.831 | R 1.07 | D 0.391 | G 1.16 | S 0.814 | K 0.557
E329: A 1.11 | F 1.58 | K 0.00515 | C 1.46 | W 1.13 | H 1.45 | S 1.09 | P 0.962 | I 1.46 | V 1.1 | Q -1.43 | Y 1.42 | D 1.74 | G 0.92 | N 1.33 | R 0.935 | L 1.16 | T 0.98
P326: N 0.815 | A 0.645 | F 1.72 | E 0.653 | Q 0.303 | Y 1.14 | L 1.1 | V 1.41 | G 0.87 | S 0.881 | T 0.923 | K 0.94 | W 1.08 | R 1.17 | M -0.264 | I 1.06 | D 0.439 | H 0.781 | C 1.19
R328: Y 1.34 | F 0.907 | S 1.17 | H -0.256 | V 1.1 | L 1.08 | E 1.06 | I 1.17 | G 0.729 | M 1.1 | Q 0.659 | C 0.932 | A 0.877 | K 0.67 | T 0.764 | P 1.22
P331: H 0.817 | N 1.23 | K 0.702 | E 0.93 | L 0.9 | V 1.21 | G 1.07 | F 0.62 | C 1 | M 1.35 | I 1.59 | R 1.41 | T 0.972 | S 0.73 | Y 1.08 | Q 0.548 | A 1.19 | W 1.26 | D 1.29
L323: V 1.21 | D 1.16 | Q 1.35 | P 1.33 | F 1.5 | N 0.866 | M 1.8 | C 0.656 | W 1.42 | A 1.11 | E 1.47 | Y 0.513 | K 1.19 | G 1.16 | I 0.984 | T 1.35 | H 0.721 | R 1.15 | S 0.985
L327: F 1.21 | W 1.69 | V 0.621 | S 1.14 | M 1.3 | G 0.535 | K 0.524 | I 0.913 | R 1.05 | Y 1.2 | N 1.37 | P 0.673 | Q 1.33 | C 0.927 | A 1.07 | D 0.96 | E 0.71 | T 0.786 | H -0.118
S324: W 1.45 | R 0.621 | P 0.628 | I 1.06 | N 1.08 | T 0.785 | D 1.13 | G 1.01 | A 1.37 | C 1.03 | H 0.589 | K 0.415 | V 0.994 | E 0.773 | Y 1.18 | Q 0.407 | F 1.09 | L 1.11
